Measurements from article PMC4689322.

Target: T1, MBNL1 ZnF3/4 (Homo sapiens, UniProt Q9NR56-2 178-246)
T1 sequence: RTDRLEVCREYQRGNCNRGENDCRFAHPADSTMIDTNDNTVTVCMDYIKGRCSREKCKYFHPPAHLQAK
Test: intrinsic tyrosine fluorescence quenching

## UCGCUUUUCCCCUCCGCU (ssRNA) [hcTNT 18-nt (S10)]
  Kd: 0.04 ± 0.01 µM
